B1: Twister Ribozyme (parent)
chain: AACACUGCCAAUGCCGGUCCCAAGCCCGGAUAAAAGUGGAGGGGGCGG

Variants of: B1
Experiment: self-cleavage, relative activity (ratio to wild type); higher = more cleavage; co-transcriptional

| Variant | self-cleavage |
| --- | --- |
| C19G C21G | 0.0223 |
| C20A G43C | 0.0847 |
| C20A G43U | 0.105 |
| C20A G43A | 0.118 |
| C20G G45A | 0.102 |
| C20G G45U | 0.0778 |
| C20A G42C | 0.78 |
| C20A G36U | 0.0906 |
| C20A G36C | 0.0494 |
| C19U A33U | 0.86 |
| C19U A33C | 0.795 |
| C20A A30G | 0.114 |
| C19G G48A | 0.167 |
| C20A A32G | 0.145 |
| C20A A32C | 0.111 |
| C20G A35U | 0.182 |
| C20G A35G | 0.094 |
| C20A A23U | 0.0802 |
| C20A A23G | 0.0659 |
| C20A C26G | 0.105 |
| C19G G47U | 0.138 |
| C19U A40U | 0.133 |
| C19U A40C | 0.152 |
| C20A A22C | 0.126 |

| Variant | self-cleavage |
| --- | --- |
| C19U G24C | 0.126 |
| C19U G43C | 0.286 |
| C19G G45C | 0.231 |
| C19G G45U | 0.174 |
| C19U A30U | 0.82 |
| C19U A30C | 0.591 |
| C20G G41U | 0.0931 |
| C20G G39C | 0.0945 |
| C20G G39U | 0.0983 |
| C20G G39A | 0.106 |
| C19G G28A | 0.211 |
| C19G G28U | 0.212 |
| C20A A35G | 0.0546 |
| C20A A33U | 0.0982 |
| C20A A34G | 0.104 |
| C20A A34U | 0.0698 |
| C20A C46G | 0.0871 |
| C20G U37C | 0.0961 |
| C20G U37A | 0.0911 |
| C20G A23U | 0.121 |
| C20G A23C | 0.118 |
| C20A G44C | 0.146 |
| C20A U31A | 0.14 |
| C20G C26A | 0.0588 |

| Variant | self-cleavage |
| --- | --- |
| C20G C26G | 0.093 |
| C19U C20U | 0.327 |
| C19U C20G | 0.0718 |
| C19U C20A | 0.107 |
| C19U G29C | 0.438 |
| C19U G29U | 0.836 |
| C20G G28U | 0.233 |
| C20G G29C | 0.0469 |
| C20G C25G | 0.0818 |
| C19U C26U | 0.0803 |
| C19U C26G | 0.0861 |
| C20G G44A | 0.18 |
| C20G G44U | 0.0685 |
| C19G A23U | 0.11 |
| C19U G48C | 1.04 |
| C19U G48U | 0.91 |
| C19G C26U | 0.0735 |
| C20A G38A | 0.0955 |
| C19U G45U | 0.563 |
| C19G A34C | 0.0815 |
| C19G A40C | 0.132 |
| C19G C20G | 0.0478 |
| C19G C25A | 0.0881 |
| C19G C46U | 0.359 |

| Variant | self-cleavage |
| --- | --- |
| C19G C46G | 0.165 |
| C19U A34G | 0.601 |
| C19U A34C | 0.083 |
| C19U | 1.05 |
| C19G | 0.485 |
| C19G A35U | 0.34 |
| C19G A35C | 0.393 |
| C20G G43U | 0.0978 |
| C20G G43C | 0.101 |
| C19G U37G | 0.0722 |
| C19U G36U | 0.127 |
| C19U G36A | 0.167 |
| C20G | 0.169 |
| C20A | 0.16 |
| C19G G38C | 0.152 |
| C19G G38U | 0.0929 |
| C20G A30G | 0.233 |
| C19G G29A | 0.258 |
| C19U A22G | 0.0788 |
| C19U A23G | 0.219 |
| C19U A23U | 0.203 |
| C20G A34G | 0.0924 |
| C20G A34U | 0.074 |
| C19G A30U | 0.456 |

| Variant | self-cleavage |
| --- | --- |
| C19G A30G | 0.468 |
| C19U G41C | 0.104 |
| C19U G41A | 0.134 |
| C20G A40C | 0.109 |
| C20G A40U | 0.0992 |
| C20G G36C | 0.168 |
| C20G G36U | 0.0382 |
| C19G A32C | 0.386 |
| C19G A32U | 0.287 |
| C19G G42U | 0.0912 |
| C19G G42C | 0.139 |
| C20G G47U | 0.131 |
| C20G G47A | 0.111 |
| C20G G47C | 0.133 |
| C20G G48C | 0.157 |
| C19U C27U | 0.802 |
| C19G G24U | 0.0534 |
| C19G C27U | 0.131 |
| C20G U31C | 0.0873 |
| C20G U31G | 0.146 |
| C20G U31A | 0.103 |
| C20A G48A | 0.104 |
| C20A G48U | 0.142 |
| C19G A33U | 0.187 |

| Variant | self-cleavage |
| --- | --- |
| C19G A33G | 0.175 |
| C20A C25U | 0.112 |
| C20A C25G | 0.0839 |
| C20A G41A | 0.0878 |
| C19U G28U | 0.822 |
| C19U G28A | 0.758 |
| C19U C21U | 0.0767 |
| C20G C46A | 0.12 |
| C20G C46U | 0.119 |
| C19A U37A | 0.0721 |
| C19G G44A | 0.351 |
| C19G G36U | 0.099 |
| C19U G47A | 0.763 |
| C19U G47U | 0.39 |
| C20G C21U | 0.115 |
| C19U A35C | 1.05 |
| C19G U31A | 0.346 |
| C19U G42C | 0.221 |
| C19U G42A | 0.17 |
| C20A G45C | 0.161 |
| C19U C46G | 0.929 |
| C19U C46A | 0.853 |
| C19U C46U | 0.907 |
| C20G A22U | 0.122 |

| Variant | self-cleavage |
| --- | --- |
| C20G A22C | 0.147 |
| C20A A40U | 0.106 |
| C20A A40G | 0.0838 |
| C20A A40C | 0.129 |
| C20A G47C | 0.108 |
| C20A G47A | 0.0961 |
| C19G A22C | 0.219 |
| C19G A22U | 0.0871 |
| C19U C25A | 0.113 |
| C20G G38A | 0.0626 |
| C20G G38U | 0.0717 |
| C20G G38C | 0.108 |
| C20A G29A | 0.138 |
| C19U U37G | 0.621 |
| C19U U37A | 0.406 |
| C19U A32G | 0.855 |
| C19U A32C | 1.05 |
| C20A G39A | 0.114 |
| C19G G43C | 0.711 |
| C19G G43A | 0.242 |
| C20G C27G | 0.0793 |
| C20G C27A | 0.102 |
| C20G C27U | 0.0791 |

From the RNAGym collection of RNA variant scans (doi:10.7554/elife.80360)
